Experimental data from paper PMC8501957.

Molecular target: MvaT F36D/M44D (P. aeruginosa) (UniProt Q9HW86)
Experiment: ITC; gp4 injected into MvaT F36D/M44D in the cell; 20 C; 20 mM Bis-Tris pH 6, 50 mM KCl, 16 mM MgCl2; one set of sites model

Work on gp4 K42E/K45E (natural protein) yielded a Kd of 1360 nM and a stoichiometry N of 0.52.

In the case of “gp4 of Pseudomonas phage LUZ24 (natural protein)”, the Kd is reported as 170 nM and the stoichiometry N is reported as 0.56.
